In patent US20200317768A1 (published 2020):
Numbering of substitutions follows the chain as printed.

Tests used:
[1] = biological target: T1, human FcγRIIaH extracellular domain, C-terminal His-tag (human, UniProt P12318 34-217); test: SPR (Biacore), KD of SG1 / KD of variant;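 note: relative to parent M103205H795-SG1 carrying the SG1 human heavy chain constant region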
T1 construct: also called human FcγRIIa (type H); FcgRIIaH; not shown: His-tag added to C-terminus
T1 sequence: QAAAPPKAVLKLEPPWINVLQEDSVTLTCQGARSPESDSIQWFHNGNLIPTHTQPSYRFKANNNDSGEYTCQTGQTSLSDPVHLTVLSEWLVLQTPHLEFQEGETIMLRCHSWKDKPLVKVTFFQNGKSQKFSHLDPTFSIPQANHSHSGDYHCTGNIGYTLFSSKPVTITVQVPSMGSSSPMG
Description: (§1) The kinetic analysis of interactions between these antibodies and FcγR was carried out using BIACORE® T200 or BIACORE® 4000 (GE Healthcare). HBS-EP+ (GE Healthcare) was used as the running buffer, and the measurement temperature was set to 25° C. A chip produced by immobilizing Protein A. Protein A/G or mouse anti-human IgG kappa light chain (BD Biosciences) onto a Series S Sensor Chip CM4 or CM5 (GE Healthcare) by the amine-coupling method was used. […] After the measurement, the antibody captured on the chip was washed off by allowing reaction with 10 mM glycine-HCl, pH1.5 and 25 mM NaOH so that the chip was regenerated and used repeatedly. The sensorgrams obtained as measurement results were analyzed by the 1:1 Langmuir binding model using the BIACORE® Evaluation Software to calculate the binding rate constant ka (L/mol/s) and dissociation rate constant kd (l/s), and the dissociation constant KD (mol/L) was calculated from these values. […] Regarding such interactions, KD values were calculated using the following 1:1 binding model described in BIACORE® T100 Software Handbook BR1006-48 Edition AE.
(§2) The behavior of interacting molecules according to the 1:1 binding model on BIACORE® can be described by Equation 1: Req=C·R max/(KD+C)+RI, wherein, Req is a plot of steady-state binding levels to analyte concentration. C is concentration, RI is bulk refractive index contribution in the sample, and Rmax is analyte binding capacity of the surface. When this equation is rearranged, KD can be expressed as Equation 2: KD=C·Rmax/(Req−RI)−C. KD can be calculated by substituting the values of Rmax, RI, and C into Equation 1 or Equation 2. From the current measurement conditions, RI=0, C=2 μmol/L can be used.

[2] = biological target: T2, human FcγRIIIaV extracellular domain, C-terminal His-tag (human, UniProt P08637 17-208); test: SPR (Biacore), KD of SG1 / KD of variant;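 note: relative to parent M103205H795-SG1 carrying the SG1 human heavy chain constant region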
T2 construct: also called FcgRIIIaV; not shown: His-tag added to C-terminus
T2 sequence (P08637 17-208 F176V): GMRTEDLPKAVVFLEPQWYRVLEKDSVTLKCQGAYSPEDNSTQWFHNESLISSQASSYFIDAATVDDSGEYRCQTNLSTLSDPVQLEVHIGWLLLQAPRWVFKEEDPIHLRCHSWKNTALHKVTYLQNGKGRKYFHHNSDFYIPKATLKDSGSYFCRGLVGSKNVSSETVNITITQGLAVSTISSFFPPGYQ
Description: as §1, §2

[3] = biological target: T3, human FcγRIIb extracellular domain, C-terminal His-tag (human, UniProt P31994 43-217); test: SPR (Biacore), KD of SG1 / KD of variant;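 note: relative to parent M103205H795-SG1 carrying the SG1 human heavy chain constant region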
T3 construct: also called FcgRIIb (human); not shown: His-tag added to C-terminus
T3 sequence: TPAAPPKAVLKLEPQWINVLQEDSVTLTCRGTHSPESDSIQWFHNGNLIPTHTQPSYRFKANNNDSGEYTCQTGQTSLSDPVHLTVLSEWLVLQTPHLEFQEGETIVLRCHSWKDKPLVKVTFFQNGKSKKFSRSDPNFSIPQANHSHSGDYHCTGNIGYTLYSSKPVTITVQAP
Description: as §1, §2

[4] = biological target: T4, cynomolgus monkey FcγRIIa1 extracellular domain, C-terminal His-tag (cynomolgus monkey); test: SPR (Biacore), KD of SG1 / KD of variant;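 note: relative to parent M103205H795-SG1 carrying the SG1 human heavy chain constant region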
T4 construct: also called cyno FcγRIIa1; cynoFcgRIIa1; not shown: His-tag added to C-terminus
T4 chain: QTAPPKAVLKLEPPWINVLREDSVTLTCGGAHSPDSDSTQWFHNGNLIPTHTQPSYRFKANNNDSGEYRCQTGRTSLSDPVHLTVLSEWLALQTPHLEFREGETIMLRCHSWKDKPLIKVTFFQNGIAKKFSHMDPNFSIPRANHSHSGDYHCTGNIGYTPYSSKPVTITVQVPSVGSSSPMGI
Description: as §1, §2

[5] = biological target: T5, cynomolgus monkey FcγRIIIaS extracellular domain, C-terminal His-tag (cynomolgus monkey, UniProt A3RFZ7 21-206 (rhesus entry)); test: SPR (Biacore), KD of SG1 / KD of variant
T5 construct: also called cyno FcγRIIIaS; cynoFcγRIIIaS; not shown: His-tag added to C-terminus
T5 sequence (A3RFZ7 21-206): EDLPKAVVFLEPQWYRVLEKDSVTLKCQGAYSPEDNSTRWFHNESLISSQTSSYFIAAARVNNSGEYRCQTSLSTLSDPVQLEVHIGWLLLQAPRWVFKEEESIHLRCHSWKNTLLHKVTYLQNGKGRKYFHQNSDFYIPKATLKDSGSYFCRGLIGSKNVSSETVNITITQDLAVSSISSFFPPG
Description: as §1, §2

[6] = biological target: T6, cynomolgus monkey FcγRIIa3 extracellular domain, C-terminal His-tag (cynomolgus monkey); test: SPR (Biacore), KD of SG1 / KD of variant
T6 construct: also called cyno FcγRIIa3; cynoFcgRIIa3; not shown: His-tag added to C-terminus
T6 chain: T4 chain with P95T, T121A, A128S, H133P, D135N
Description: as §1, §2

[7] = biological target: T7, cynomolgus monkey FcγRIIa2 extracellular domain, C-terminal His-tag (cynomolgus monkey); test: SPR (Biacore), KD of SG1 / KD of variant
T7 construct: also called cyno FcγRIIa2; cynoFcgRIIa2; not shown: His-tag added to C-terminus
T7 chain: T4 chain with P95T, T121A, I127K, A128S, K130N, D135N, R142Q
Description: as §1, §2

[8] = biological target: T8, human FcγRIIaR extracellular domain, C-terminal His-tag (human, UniProt P12318 34-217); test: SPR (Biacore), KD of SG1 / KD of variant
T8 construct: also called human FcγRIIa (type R); FcgRIIaR; not shown: His-tag added to C-terminus
T8 chain: T1 sequence with H134R
Description: as §1, §2

[9] = biological target: T1, human FcγRIIaH extracellular domain, …; test: SPR (Biacore), antibody captured, FcgR analyte, 25 C
Description: as §1, §2

[10] = biological target: T2, human FcγRIIIaV extracellular domain, …; test: as above
Description: as §1, §2

[11] = biological target: T3, human FcγRIIb extracellular domain, …; test: as above
Description: as §1, §2

[12] = biological target: T4, cynomolgus monkey FcγRIIa1 …; test: as above
Description: as §1, §2

[13] = biological target: T5, cynomolgus monkey FcγRIIIaS …; test: as above
Description: as §1, §2

[14] = biological target: T6, cynomolgus monkey FcγRIIa3 …; test: as above
Description: as §1, §2

[15] = biological target: T8, human FcγRIIaR extracellular domain, …; test: as above
Description: as §1, §2

B1: M103205H795-MY316/M103202L889-SK1 (antibody, human IgG1, kappa)
heavy: QVTLKESGPVLVKPTETLTLTCTVSGIDLSHDDISWVRQAPGKGLEWVGIISYAGSTYYASWAKGRLTISKDTSKNQVVLTMTNMDPVDTATYYCARGVPAYSHGGDLWGQGTLVTVSSASTKGPSVFPLAPSSKSTSGGTAALGCLVKDYFPEPVTVSWNSGALTSGVHTFPAVLQSSGLYSLSSVVTVPSSSLGTQTYICNVNHKPSNTKVDKKVEPKSCDKTHTCPPCPAPELLLGPSVFLFPPKPKDTLMISRTPEVTCVVVDVSEEDPEVKFNWYVDGVEVHNAKTKPREELYNSTYRVVSVLTVLHQDWLNGKEYKCKVSNKALPKPIEKTISKAKGQPREPQVYTLPPSREEMTKNQVSLTCLVKGFYPSDIAVEWESNGQPENNYKTTPKVLDSDGSFFLYSKLTVDKSRWQQGNVFSCSVMHEALHNHYTQKSLSLSP
light: DIVMTQSPATLSLSPGERATLSCTSSQSVYHANWLSWFQQKPGQPPKLLIYWASTLAYGVPSRFSGSGSGTDFTLTISSLQPEDAATYYCAGGYGGGRYAFGQGTKVEIKRTVAAPSVFIFPPSDEQLKSGTASVVCLLNNFYPREAKVQWKVDNALQSGNSQESVTEQDSKDSTYSLSSTLTLSKADYEKHKVYACEVTHQGLSSPVTKSFNRGEC
B1 was tested, and the “KD fold (SG1 = 1)” value [1] was 1.6 fold, the “KD fold (SG1 = 1)” value [2] was 0.05 fold and the “KD fold (SG1 = 1)” value [3] was 1.2 fold. The “KD fold (SG1 = 1)” value [4] was 0.6 fold, the “KD fold (SG1 = 1)” value [5] was 0.15 fold and the “KD fold (SG1 = 1)” value [6] was 0.6 fold. For the same binder, the “KD fold (SG1 = 1)” value [7] was 0.6 fold, the “KD fold (SG1 = 1)” value [8] was 1.1 fold and the Kd [9] was 0.44 µM. It also gave a Kd [10] of 17 µM, a Kd [11] of 4 µM and a Kd [12] of 5.1 µM. The Kd [13] was 2.4 µM, the Kd [14] was 22 µM and the Kd [15] was 1.1 µM.
